experiment: yeast display, Sf9 membrane polyspecificity reagent, FACS + sequencing; frameworks hold sequencing errors
How it was run: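 Synthetic nanobody libraries on Saccharomyces cerevisiae BJ5465 were galactose-induced for 36–48 hours, stained 1 hour at 4 °C with 10% biotinylated, detergent-solubilized Sf9 membrane reagent and enriched on streptavidin microbeads. FACS then separated cells into low and high (top ~1%) gates by anti-HA (expression) and streptavidin (reagent binding) fluorescence. Genes were colony-PCR amplified, MiSeq 2 × 250 sequenced and CDR-length filtered. A clone's polyreactivity label is that of its gate of origin.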

Sequence | polyreactivity (PSR sort gate)
QVQLVESGGGLVQAGGSLRLSCAASGIILRYYAMGWYRQAPGKERELVAAITRGGSTNYADSVKGRFTISRDNAKNTVYLQMNSLKPEDTAVYYCAADVVFWFSNVAWGDFGYWGQGTQVTVSS | low polyreactivity
QVQLVESGGGLVQAGGSLRLSCAASGSIFSVNDMGWYRQAPGKERELVAAISSGGSTNYADSVKGRFTISRDNAKNTVSLQMNSLKPEDTAVYYCNTVVRGWSSSAYDYWGQGTQVTVSS | low polyreactivity
QVQLVESVGGLVQAGGSLRLSCAASGRTFRNNAMGWYRQAPGTEREFVAVISNTGGSTYYADSVKGRFTISRDNAKNTVYLQLNSLKPEDTAVYYCAVRPRYSQYYYWGQGTQVTVSS | high polyreactivity
QVQLVESGGGLVQAGGSLRLSCAASGFIFGYYAMGWYRQAPGKERELVAVISRGGGSTHYADSVKGRFTISRDNAKNTVYLQMNSLKPEDTAVYYCAAQLGRRSATYYYWGQGTQVTVSS | high polyreactivity
QVQLVESGGGLVQAGGSLRLSCAASGRTLFYYTMGWYRQAPGKERELVAAITTGGRTYYADSVKGRFTISRDNAKNTVYLQMNSLKPEDTAVYYCAAHTYYYPVGFNYWGQGTQVTVSS | low polyreactivity
QVQVVESGGGLVQAGGSLRLSCAASGFIFFTYAKGWYRPAPGKERELVADISSRGGSTYYADSVKGRFTISRDNAKNTVYLQMNSLKPEDTAVYYCARTRFWLRYRLFDYWGQGTQVTVSS | low polyreactivity
QVQLVESGGGLVQAGGSLRLSCAASGSIFYVYAMGWYRQAPGKEREMVAAISKSGGSTYYADSVKGRFTISRDNAKNTVYLQMNSLKPEDTADYYCAAYFSYGSIIEDYWGQGTQVTVSS | low polyreactivity
QVQLVESGGGLVQAGGSLRLSCAASGRIFADYAMGWNRHAPGKQRELVAAITWSGDRTYYADSVKGRFTISRDNAKNTVYLQMNSLKPEDTAVYYCAARARLRRYNYWGQGTQVTVSS | high polyreactivity
QVQHVESGARLVQAGGSLRLSCAASGHIFFDYTMGWSRQAPGKERELVAGITIGGSTNYADSVKGRFTISRDNAKNTVYLQMNSLKPEDTAVYYCNVVKYVYIYSYWEYYYWGQGTQVTVSS | low polyreactivity
QVQLVESGGGLVQAGGSLRLSCAASGRIYKSYAMGWYRQAPGKERELVAAIRSGGSTYYADSVKGRFTISRDNAKNTVYLQMKSLKPEDTAVYYCAADRYSYGSNGYPRFEYYYWGQGTQVTVSS | high polyreactivity
QVQLVESGGGLVQAGGSLRLSCAASGGNFWYNTMGWYRQAPWKERELVAAISDSGGRTSYADSVKGRVTISRDNANHTVYLQMNSLKPEDTAVYYCNVDYVVSRGFIYRVDYWGQGTQVTVSS | low polyreactivity
QVQLVESGGGLVQAGGSLRLSCAASGFIFATYTMGWYRQAPGKERELVAAITWRGGSTYYADTVKGRFPISRDNAKNTVYLQMNSLKPEDTAVYYCAAQDVNSYRYVEDVYCGQGTQVTVSS | low polyreactivity
QVQLVESGGGLVQAGGSLRLSCAASGRIFWDYAMGWYRQAPGKERELVAGISYSGGSTSYADSVKGRFTISRDNAKNTVYLQMKSLKPEDTAVYYCAAGPSGTFFRDYDYWGQGTQVTVSS | low polyreactivity
QVQLVGSGGGLVQAGGSLRLSCAASGSTFGYYAMGWYRQAPGKERELVAAITKSGGSTFYADSVKGRFTISRDNAKNTVYLQMNSLKPEDTAVYYCAARYKGQYYRQGRHDFWGQGTQVTVSS | high polyreactivity
QVQLVESGGGLVQAGGSLRLSCAASGRTFVPYAMGWYRQAPGKERELVAAISSGGDTNYADSVKGRFTISRDNAKNTVYLQMNSLKPEDSAVYYCAKDLTQIYYGDDYWGQGTQVTVSS | low polyreactivity
QVQLVESGGGLVQAGGSIRLTCAASGLIFLVYPMGWYRPAPGKERELVASIRTGRSTSYADSVKGRFTISRDNAKYTVYLQMNSLKPEDTAVYYCAADRGRPNLPGDYWGQGTQVTVSS | low polyreactivity
QVQLVESGGGLVQAGGSLRLSCAASGLIFHSYAMGWYRQAPGKERELVAAISKRGGSTYYADSVKGRFTISRDNAKNTVYLQMNSLKPEDTAVYYCAAGARGLYDYWGQGTQVTVSS | high polyreactivity
QVQLVESGGGLVQAGGSLRLSCAASGRIYSYYAMGWYRQAPGKERELVATINSGGSTNYADSVNGRFTISRDNAKNTVYLQMKSLKPEDTAVYYCGALRDRDITVYYDTGRMYYWGQGTQVNVSS | low polyreactivity
QVQLVESGGGLVQAGGSLRLICAASGRTFRYYTMGWYRQAPGKERELVAAISWRGGSTYYADSVKGRFTISRDNAKNTVYLQMNSLKPEDTAVYYCAAKRPKRYNEGYYWGQGTQVTVSS | high polyreactivity
QVQLGESGGGLVQAGGSLRLSCAASGSIFPDNTMGWYRPATGKEWELVAAIDGRGGTTYYADSVKGRFTISRDNAKNTVYLQMNSLKPEDTAVYYCARDIGHSARYDYWGQGTQVTVSS | low polyreactivity
QVQLVESGGGLVQAGGSLSLSCAASGSTFKHYAMGWYRQAPGKERELVAAISSRGGSTHYADSVKGRFTISRDNAMNTVYLQMNSLKPEDTAVYYCARDTDPQSSRSSDYDYWGQGTHVTVSS | low polyreactivity
QVHLLESGGGLFQPGGSLRLSCAASGRIFTSYAMGWYRPAPGKESELVAAISWGGGRTYYADSVKGRYTISRDNAKNTVYLQMNSVKPEDTAVYYCAALIADRDSPYDYWGQGTQVTVSS | high polyreactivity

Sequence | polyreactivity (PSR sort gate)
QVQLVESGGGLVQAGGSLRLSCSAYGFIFTGYAMGWYRQAPGKEREFVAAISYSGGSTYADSVKGRFTISRDNAKNSVYLQMNSLKPEDTAVYYCNARQGLWRYTAENDYWGQGTQVTVSS | low polyreactivity
QVQLVESGGGLVQAGGSLRLSCAASGSIVGIYVMGWYRQAPGKERELVAGISPRGGSTYYADSVKGRFTISRDYAKNTVYLQMNSLKPEDTAVYYCAAVPASFRYPMYYLGQGTQVTVSS | low polyreactivity
QVQLVESGGGLVQAGGSIRISCAASGITFIDYTMGWYRQAPGKERELVAVITKTGYRTYYADSVKGRFTISRDNANNSDYLQMNSLNRSDSAVYYCNALYYIHYYEGYGYWGQGTQVTVSS | high polyreactivity
QVQLVESGGGLVQAGGSLRLSCAASGIIFDYNAMGWYRQAPGKERELVDSIDSGCSTNYADSVKGSFTISRDNAKNTVYLQMNSLKPEDTAVYYCNADDTTVSPWYYYYQSYYWGQGTQVTVSS | low polyreactivity
QVQLVESGGGLVQAGGSLRLSCAASGFTFRKNAMGWYRHAPGKERELVAVISSSGGSTSYADSVKRRFTISRDNAKNTVYLQMNSLKPEDTAVYYCAAGSSRLRALYNYWGQGSQVTVSS | high polyreactivity
QVQLVESGGVLVQAGVSLRLSCAASGRNFLWYVMGCYRQAPGKERELVAAISSGGRTYYADSVKGRFTSSRDNAKHTLYLQMNSLKPEDTAVYYCAAVRRYLKAAYGYWGQGTQVTVSS | low polyreactivity
QVQLVESGGGLVQAGGRLRLSCAASGFIFPVYAMGWYRQAPGKERELVASITTGGSTNYADSVKGRFTISRDNAKNTVYLQMNSLKPEDTAVYYCNKDTPASLANQYNYWGQGTQVTVSS | low polyreactivity
QVQLVESGGGLVQAGGSLRLSCAASGRTFLLYAMGWYRQAPGKERELVASITSDGRTNYADSVKGRFSISRDNAKNTVYLHMNSLKPEDTADYYCATVGKVHHRLVAMDYWGQGTQVTVSS | low polyreactivity
QVQLVESGGGLVQAGGSLRLSCAASGRIFSEYAMGGDRQAPGKERELVATITSGDSTIYADSVKGRFTISRDNAKNTVYVQMNSLKPDDTAVYYCNPDRFADYDYWGHGTQVTVSS | low polyreactivity
QVQLVESGGGLGQAGGSLRLSCAASGSIFQGYTMRWYRQARGKARELVAAITRSVTSTYYADSVKGRFTISRDNAKNTVYLQMNCLKPEDTAVYYCAATAYYARYWYDYWGQGTQVTVSS | high polyreactivity
HVQLVESGGGIVQAGGSLRLSCAASGLIFSYYAMGWYRQAPGKERELVAAINSGGSTYYADSVKGRFTISRDNAKNTVYLQMNSLKPEDSAVYYCAAHLWYHGHLFDYWGQGTQVTVSS | high polyreactivity
QVQHVESGGGLVQAGASLRLSCAASRRTFYRYAMGWSRQAPGKERELVAAISSGGSTNYADCVKGRFTISRDNAKNTVYLHMNRLKPEDTAVYYCAAETRLHRQDYDYWGQGTQVTVSS | low polyreactivity
QVQLVESGGGLVQAGGSLRLSCAASGIPRNTMGWYRQAPGKERELVASISTSGGSTYYADSVKGRFTISLDNAKKTVYLQMNSLKPEDTAVYYCAKKAYASRYFIYDYWGQGTQVTVSS | low polyreactivity
QVQLVESGGGLVQAGGSHRLRCAASGLIIGDYGMGWYRQAPGKERELVAAITDRGGTTYYADSVKGRFTISRDNAKNTVYFQMNSLKPEDTAVYYCIARQSDIFDYDYWGQGSQVTVSS | low polyreactivity
QVQLVESGGGLVQAGGSLRLSCAASGFTFRWYAMGWYRQAPGKERELVAAISSSGGSTYYADSVKGRFTISRDNAKNTVYLQMKSLKPEDTAVYYCNTDANYLTNTIYDYWGQGTQVTVSS | high polyreactivity
QVQLVESGGGLVQAGGSLRLSCAASGNIFAINAMGWYRQAPGKERELVAAITWSSARTYYADSVKGRFTISRDNAKNTVYLQMNSLKPEDTAVYYCNAPALFEYDYWGQGTQVTVSS | high polyreactivity
QVQLVESGGGLVQAGGSLRLSCSASGSNFGYYAMGWYRQAPGKERELVASITWTGGSTYYADSVKGRFTISRDNAKNTVYLQMNSLKPEDTAVYYCAAQLEPSYWFWTGYGYWGQGTQVTVSS | high polyreactivity
QVQLVESGGGLVQAGGSLRLSCAASGYIFGWYAMGWYRQAPGKERELLATIDWSGDSTYYADSVKGRFTISRDNAKNTVYLQMNSLKPEDTAVYYCAVGYVVDTWDEYDYWGQGTQVTVSS | low polyreactivity
QVQLVESGGGLVQAGGSLRLSCAASGRTFATNAMGWYRQAPGKERELVADISGGGSTYYADSVKGRFTISRDNAKNTVYLQMNSLKPEDTAVYYCAARDYHWFQWYDYWGQGTQVTVSS | low polyreactivity
QVQLVESGGGLVQAGGSLRLSSAASGITFFHYAMGWYRQEPGKERELVATISWRAGSTYADSVKGRFTISRDNAKKTVYLQMNSLKPEDTAVYYCNAVWTYHSGSGGYLFDYWGLGTQVTVSS | low polyreactivity
QVQLVESGGGLVQAGGSLRLSCAASGITFYGYAMGWYRQAPGKERELVATISSGGSTNYADSVKGRFTISRDNAKNTVYLQMNSLKPEDTAVYYCNAAPDVNRDYEGSGDYWGQGSQVTVSS | low polyreactivity
